According to patent US20150104466A1, “CYTOMEGALOVIRUS DISINTEGRIN-LIKE PEPTIDES” (priority 2013, published 2015):

Assays:
[1] = target: Normal human dermal fibroblasts; assay: Protein binding assay: gBDLD binding to human fibroblasts (His-tag ELISA)
Procedure: Normal human dermal fibroblasts were chilled to 4° C., washed three times with cold MES buffer and blocked with 1 mg/mL bovine serum albumin (BSA) for 30 minutes at 4° C. Unbound BSA was removed with cold MES washes (×4). The indicated amounts of gBDLD were added to each well for 90 minutes at 4° C. Cells were then washed three times with cold MES, twice with cold (phosphate-buffered saline (PBS) and fixed with 3% paraformaldehyde. An ELISA was then performed probing with anti-His rabbit polyclonal antibody (Santa Cruz Biotechnology, Santa Cruz, Calif.) and anti-rabbit HRP (Pierce). Absorbance was measured at 405 nm.
FIG. 7 is a graph depicting the results of a gBDLD binding assay (performed as described previously). Here, binding was measured by absorbance at 405 nm. […] To generate the data, human fibroblasts were incubated with gBDLD for the indicated times at 4° C. Cells were then washed, fixed and an ELISA was performed probing for the gBDLD […] his-tag. […]
FIG. 8 is a graph depicting gBDLD binding to human fibroblasts. As is readily apparent from FIG. 8, this binding is dose-dependent and saturable. […] After three IVIES washes and two PBS washes, cells were fixed in 3% paraformaldehyde and a His-tag ELISA was performed to quantitate gBDLD bound to cells.

diI-labeled HCMV = assay type: cell-based, Human cytomegalovirus; details: gBDLD or BSA 320 μg/mL, soluble heparin 50 μg/mL; 24 hours post-infection
β3 integrin = target: T1, β3 integrin (Homo sapiens, UniProt P05106); assay: Integrin co-immunoprecipitation assay, Western blot for β3 integrin; assay type: binding; details: human fibroblast lysates, nickel beads
T1 construct: endogenous in cells; host or cells: Normal Human Dermal Fibroblasts (NHDF), 1% TX-100 lysate
T1 sequence (P05106 27-788): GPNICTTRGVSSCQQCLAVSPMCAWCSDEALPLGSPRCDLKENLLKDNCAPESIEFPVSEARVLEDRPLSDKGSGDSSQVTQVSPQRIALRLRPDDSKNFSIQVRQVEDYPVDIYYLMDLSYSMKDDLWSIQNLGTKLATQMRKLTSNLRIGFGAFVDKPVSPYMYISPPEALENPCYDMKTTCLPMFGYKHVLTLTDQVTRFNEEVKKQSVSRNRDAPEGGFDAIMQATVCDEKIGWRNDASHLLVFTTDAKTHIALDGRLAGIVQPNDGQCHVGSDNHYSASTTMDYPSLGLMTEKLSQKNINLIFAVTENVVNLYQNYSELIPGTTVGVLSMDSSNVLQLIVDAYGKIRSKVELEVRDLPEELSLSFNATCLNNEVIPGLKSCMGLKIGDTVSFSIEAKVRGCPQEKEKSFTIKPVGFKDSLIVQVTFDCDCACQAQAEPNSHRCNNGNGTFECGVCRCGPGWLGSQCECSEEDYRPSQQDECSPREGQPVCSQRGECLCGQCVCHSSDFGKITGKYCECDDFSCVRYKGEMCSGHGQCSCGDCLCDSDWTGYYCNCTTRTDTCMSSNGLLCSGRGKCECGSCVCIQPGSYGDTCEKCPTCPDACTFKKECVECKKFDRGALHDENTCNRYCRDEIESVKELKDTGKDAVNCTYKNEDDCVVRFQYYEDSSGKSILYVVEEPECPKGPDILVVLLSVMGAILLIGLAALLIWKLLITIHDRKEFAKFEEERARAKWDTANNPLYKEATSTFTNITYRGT
T1 sequence (P06756 31-889 partner limits assumed): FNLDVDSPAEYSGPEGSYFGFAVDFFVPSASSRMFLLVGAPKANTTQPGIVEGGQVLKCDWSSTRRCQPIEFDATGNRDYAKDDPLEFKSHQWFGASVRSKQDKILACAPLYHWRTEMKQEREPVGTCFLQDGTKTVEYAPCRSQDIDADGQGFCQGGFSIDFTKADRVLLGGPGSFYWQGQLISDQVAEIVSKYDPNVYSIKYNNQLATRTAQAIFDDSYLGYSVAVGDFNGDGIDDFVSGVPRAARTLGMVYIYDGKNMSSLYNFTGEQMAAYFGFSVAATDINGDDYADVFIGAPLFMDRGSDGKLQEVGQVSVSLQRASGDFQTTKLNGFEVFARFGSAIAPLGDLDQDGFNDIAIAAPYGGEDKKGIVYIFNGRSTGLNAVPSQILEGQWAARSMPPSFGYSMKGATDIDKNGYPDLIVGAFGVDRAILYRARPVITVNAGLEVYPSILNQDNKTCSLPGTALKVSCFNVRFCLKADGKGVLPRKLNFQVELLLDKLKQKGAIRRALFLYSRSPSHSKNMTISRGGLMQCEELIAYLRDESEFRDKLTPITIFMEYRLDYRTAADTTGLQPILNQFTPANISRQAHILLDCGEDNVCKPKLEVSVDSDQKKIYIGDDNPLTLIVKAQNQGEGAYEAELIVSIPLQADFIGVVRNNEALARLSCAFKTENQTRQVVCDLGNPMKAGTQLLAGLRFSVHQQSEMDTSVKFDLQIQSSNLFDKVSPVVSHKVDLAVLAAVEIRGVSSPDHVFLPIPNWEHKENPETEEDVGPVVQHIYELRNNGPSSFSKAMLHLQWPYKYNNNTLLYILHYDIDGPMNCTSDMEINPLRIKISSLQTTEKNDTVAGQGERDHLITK
T1 sequence (P06756 891-1048 partner limits assumed): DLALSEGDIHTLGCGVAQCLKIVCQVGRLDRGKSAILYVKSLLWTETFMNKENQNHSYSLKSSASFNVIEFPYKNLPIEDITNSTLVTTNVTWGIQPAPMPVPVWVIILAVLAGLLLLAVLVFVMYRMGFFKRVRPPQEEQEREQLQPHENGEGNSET
Procedure: (§1) A T-175 flask of NHDFs was grown to complete confluence, washed three times in MES buffer and lysed in 1 mL MES buffer+1% TX-100 (a detergent). Lysate was spun at 10,000 g for 10 minutes to remove cell debris. Cell lysate (350 μL) was then incubated with 20 μg gBDLD for 4 hours at 4° C. The lysate+gBDLD mixture was then incubated with 50 μL Ni beads overnight at 4° C. Nickel beads were then washed three times and protein eluted by boiling and then adding reducing SDS-PAGE buffer. Proteins were separated by SDS-PAGE and Western blotted for β1 integrin (Chemicon-1965) or β3 (Chemicon) as previously described.^48
(§2) To identify the cellular receptor for gBDLD we performed co-immunoprecipitation studies. Briefly, gBDLD was incubated with human fibroblast lysates and pulled down with nickel-conjugated agarose beads.
(§3) Because gBDLD contains a known β1 integrin binding motif, gBDLD bound to its cellular receptor was isolated by SDS-PAGE and then Western blotted for either β1 or β3 integrin. The resulting gels are shown in FIG. 10 (β1) and FIG. 11 (β3).

β1 integrin = target: T2, β1 integrin (Homo sapiens, UniProt P05556); assay: Integrin co-immunoprecipitation assay, Western blot for β1 integrin; assay type: binding; details: human fibroblast lysates, nickel beads
T2 construct: endogenous in cells; host or cells: Normal Human Dermal Fibroblasts (NHDF), 1% TX-100 lysate
T2 sequence (P05556 21-798): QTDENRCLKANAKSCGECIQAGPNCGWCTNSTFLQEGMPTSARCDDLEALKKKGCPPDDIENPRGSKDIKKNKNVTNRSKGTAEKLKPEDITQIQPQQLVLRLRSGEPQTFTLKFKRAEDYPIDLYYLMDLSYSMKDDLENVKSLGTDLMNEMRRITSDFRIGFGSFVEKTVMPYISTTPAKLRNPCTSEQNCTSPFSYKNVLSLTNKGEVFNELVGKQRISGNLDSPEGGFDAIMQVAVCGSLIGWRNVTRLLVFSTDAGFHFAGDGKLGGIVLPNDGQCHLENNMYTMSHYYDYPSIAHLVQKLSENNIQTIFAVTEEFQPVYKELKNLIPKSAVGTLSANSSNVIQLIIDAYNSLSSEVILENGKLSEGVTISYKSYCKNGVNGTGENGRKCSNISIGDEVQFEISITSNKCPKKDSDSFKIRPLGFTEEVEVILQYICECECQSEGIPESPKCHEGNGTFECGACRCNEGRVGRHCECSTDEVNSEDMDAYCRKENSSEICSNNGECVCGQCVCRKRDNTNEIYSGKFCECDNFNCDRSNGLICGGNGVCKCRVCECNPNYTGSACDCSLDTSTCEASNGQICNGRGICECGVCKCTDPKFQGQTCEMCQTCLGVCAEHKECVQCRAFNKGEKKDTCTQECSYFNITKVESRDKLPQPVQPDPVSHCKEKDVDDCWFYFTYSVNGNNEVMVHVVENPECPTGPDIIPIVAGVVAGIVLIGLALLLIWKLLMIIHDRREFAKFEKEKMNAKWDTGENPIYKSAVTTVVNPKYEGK
Procedure: as §1, §2, §3

NHDF cells = assay: Cytoskeletal rearrangement in NHDF cells (actin staining with phalloidin); assay type: cell-based, human; details: compared to buffer alone
From the text: gBDLD Triggers Cytoskeletal Rearrangements: β1 integrins are known inducers of broad signal transduction events. […] To test the role of gBDLD in mediating signaling events, we stimulated NHDF cells with buffer alone, gBDLD, or a known cytoskeletal reorganizer (EGF), followed by actin staining with phalloidin.

[2] = Solubility of gBDLD in MES buffer; assay type: physicochemical; details: 55 mM MES, pH 5.5, 300 mM NaCl
Procedure: DNA sequence corresponding to amino acids 57-146 of HCMV AD169 glycoprotein B disintegrin-like domain (“gBDLD”) was cloned into the bacterial expression vector pET-28a containing an N-terminal His-Tag with thrombin cleavage site and kanamycin resistance. (Commercially available from Novagen, San Diego, Calif.) gBDLD production was induced by the addition of 1 mM isopropyl-βD-thiogalactopyranoside (IPTG). E. coli Tuner strain containing pET-28a:gBDLD was grown at 37° C. in Luria-Bertani medium containing kanamycin (50 μg/mL) to an optical density at 600 nm of approximately 0.6. IPTG (1 mM) was added and the plates were incubated continuously for 4 h at 37° C. Cells were harvested by centrifugation at 4000 r/min for 10 min and pellets were resuspended in 1% Triton X-100/Ni-NTA buffer (300 mM NaCl/50 mM Tris-HCL pH 7.9) and lysed by 3×60 s bursts of sonication. The lysate was centrifuged at 15,000 r/min for 15 minutes at 4° C. The 8M urea/Ni-NTA fraction was then poured into a chromatography column containing nickel-nitriloacetic acid agarose (Ni-NTA) beads at 4° C. and allowed to flow through. […] Fractions containing protein were determined by measuring the absorbance of each fraction at 214 nm. Fractions that corresponded to absorption peaks were analyzed by sodium dodecyl sulfate polyacrylamide electrophoresis (SDS-PAGE) to determine the size of the protein. […]

B1: gBDLD: amino acids 57-146 of HCMV AD169 glycoprotein B disintegrin-like domain, His-tagged, expressed in E. coli (protein)
chain: VTSSEAVSHRANETIYNTTLKYGDVVGVNTTKYPYRVCSMAQGTDLIRFERNIICTSMKPINEDLDEGIMVVYKRNIVAHTFKVRVYQKV
modifications: left off: small tags and cut ends
notes: amino acids 57-146 of HCMV AD169 glycoprotein B disintegrin-like domain, His-tagged, expressed in E. coli
kinetics of gBDLD binding to human fibroblasts ([1]; 4° C., absorbance at 405 nm): rapid kinetics
concentration at which binding to fibroblast monolayers reached saturation ([1]; 60 minutes, after BSA blocking): 12.5 µg/mL
block of HCMV fusion and gene expression (diI-labeled HCMV): complete block of HCMV fusion and gene expression
interaction with β3 integrin (pull down) (β3 integrin): does not interact with β3 integrins
interaction with β1 integrin (pull down) (β1 integrin): interacts with β1 integrins
reorganization of the cytoskeleton (NHDF cells): triggered a dramatic reorganization of the cytoskeleton
Solubility [2]: approximately 1 mg/mL
